T1: rhCEACAM5-Fc (human, UniProt P06731 35-685)
T1 construct: Bought staining reagent; construct limits and Fc not described; also called primary rhCEACAM5-Fc antibody; CEA.hFc protein; not shown: Fc tag detected with anti-IgG-Fc-PE
T1 sequence (looked up): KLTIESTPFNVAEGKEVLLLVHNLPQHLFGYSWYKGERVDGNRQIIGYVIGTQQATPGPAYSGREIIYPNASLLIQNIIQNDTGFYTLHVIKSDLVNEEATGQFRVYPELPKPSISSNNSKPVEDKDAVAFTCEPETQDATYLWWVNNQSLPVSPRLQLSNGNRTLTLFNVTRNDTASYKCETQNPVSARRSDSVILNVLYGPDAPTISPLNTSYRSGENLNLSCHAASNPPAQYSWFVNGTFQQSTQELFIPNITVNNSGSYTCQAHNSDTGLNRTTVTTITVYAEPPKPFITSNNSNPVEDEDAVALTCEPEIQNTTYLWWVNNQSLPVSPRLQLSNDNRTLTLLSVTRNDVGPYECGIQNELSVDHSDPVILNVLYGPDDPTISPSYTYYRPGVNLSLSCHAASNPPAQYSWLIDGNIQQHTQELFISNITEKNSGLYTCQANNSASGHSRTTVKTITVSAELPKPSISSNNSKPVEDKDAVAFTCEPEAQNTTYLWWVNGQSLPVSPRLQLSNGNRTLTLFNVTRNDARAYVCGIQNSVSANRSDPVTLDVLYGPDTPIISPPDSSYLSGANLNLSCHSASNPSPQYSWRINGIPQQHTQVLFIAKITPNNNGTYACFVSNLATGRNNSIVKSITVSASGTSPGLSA


Assays:
rhCEACAM5-Fc = molecular target: T1, rhCEACAM5-Fc; assay: flow cytometry of transduced T cells: CoStAR detected with primary rhCEACAM5-Fc and secondary anti-IgG-Fc-PE (FIG. 26)
[1] = molecular target: Human folate receptor alpha (FolR) on cells (human) (UniProt P15328); assay: cell-based or functional assay
Chain of Human folate receptor alpha (FolR) on cells (human) (P15328 25-234): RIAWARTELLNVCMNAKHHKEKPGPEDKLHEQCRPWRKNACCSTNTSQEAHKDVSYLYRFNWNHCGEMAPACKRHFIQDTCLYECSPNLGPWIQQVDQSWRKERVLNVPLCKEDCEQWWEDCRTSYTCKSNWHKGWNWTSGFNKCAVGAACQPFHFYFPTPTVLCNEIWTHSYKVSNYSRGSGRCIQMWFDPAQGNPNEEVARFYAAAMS

| Binder | binding result (rhCEACAM5-Fc) | enhancement of Bcl-XL induction in the presence of OvCAR-OKT3 [1] [%] | mean fold expansion of transduced T cells over 21 days with OvCAR-OKT3 (CA125+/Folate receptor+/CEA-) [1] [fold] | further results |
| --- | --- | --- | --- | --- |
| anti-CEA CoStAR CTP244 (OSM1 signal peptide, hMFE23 scFv, AAAGSGGSG linker, CD28 (trunc IIH) spacer, CD28 TM, CD28.CD40) (receptor, On transduced human T cells) QVKLEQSGAEVVKPGASVKLSCKASGFNIKDSYMHWLRQGPGQRLEWIGWIDPENGDTEYAPKFQGKATFTTDTSANTAYLGLSSLRPEDTAVYYCNEGTPTGPYYFDYWGQGTLVTVSSGGGGSGGGGSGGGGSENVLTQSPSSMSASVGDRVNIACSASSSVSYMHWFQQKPGKSPKLWIYSTSNLASGVPSRFSGSGSGTDYSLTISSMQPEDAATYYCQQRSSYPLTFGGGTKLEIKAAAGSGGSGIIHVKGKHLCPSPLFPGPSKPFWVLVVVGGVLACYSLLVTVAFIIFWVRSKRSRLLHSDYMNMTPRRPGPTRKHYQPYAPPRDFAAYRSKKVAKKPTNKAPHPKQEPQEINFPDDLPGSNTAAPVQETLHGCQPVTQEDGKESRISVQERQ | binds |  |  |  |
| MOV19.CD28.CD40 CoStAR (receptor, part only; not given: tag, linker, CD28 and CD40 parts, part only) chain, part: QVQLQQSGAELVKPGASVKISCKASGYSFTGYFMNWVKQSHGKSLEWIGRIHPYDGDTFYNQNFKDKATLTVDKSSNTAHMELLSLTSEDFAVYYCTRYDGSRAMDYWGQGTTVTVSSGGGGSGGGGSGGGGSDIELTQSPASLAVSLGQRAIISCKASQSVSFAGTSLMHWYHQKPGQQPKLLIYRASNLEAGVPTRFSGSGSKTDFTLNIHPVEEEDAATYYCQQSREYPYTFGGGTKLEIK |  | 35 | 1300 | CD137 expression [1]: 50%; CD137 expression of CoStAR+ TIL after coculture with FolR high expressing tumour digest [1]: 50%; CD137 expression of CoStAR+ TIL after coculture with FolR low expressing tumour digest [1]: > 20%; IL-2 production [1]: 5%; TNFα production [1]: 15% |
| MOV19.CD28 CoStAR (receptor, part only; not given: tag, linker and CD28 part, part only) chain, part: QVQLQQSGAELVKPGASVKISCKASGYSFTGYFMNWVKQSHGKSLEWIGRIHPYDGDTFYNQNFKDKATLTVDKSSNTAHMELLSLTSEDFAVYYCTRYDGSRAMDYWGQGTTVTVSSGGGGSGGGGSGGGGSDIELTQSPASLAVSLGQRAIISCKASQSVSFAGTSLMHWYHQKPGQQPKLLIYRASNLEAGVPTRFSGSGSKTDFTLNIHPVEEEDAATYYCQQSREYPYTFGGGTKLEIK |  | 20 | 187 | enhancement of IL-2 induction in the presence of OvCAR-OKT3 [1]: 20% |
| anti-CEA CoStAR CTP232 (OSM1 signal peptide, hMFE23 scFv, AAAGSGGSG linker, CD8 EC spacer, CD8 TM, CD28.CD40) (receptor, On transduced human T cells) QVKLEQSGAEVVKPGASVKLSCKASGFNIKDSYMHWLRQGPGQRLEWIGWIDPENGDTEYAPKFQGKATFTTDTSANTAYLGLSSLRPEDTAVYYCNEGTPTGPYYFDYWGQGTLVTVSSGGGGSGGGGSGGGGSENVLTQSPSSMSASVGDRVNIACSASSSVSYMHWFQQKPGKSPKLWIYSTSNLASGVPSRFSGSGSGTDYSLTISSMQPEDAATYYCQQRSSYPLTFGGGTKLEIKAAAGSGGSGFVPVFLPAKPTTTPAPRPPTPAPTIASQPLSLRPEACRPAAGGAVHTRGLDFACDIYIWAPLAGTCGVLLLSLVITLYCNHRNRSKRSRLLHSDYMNMTPRRPGPTRKHYQPYAPPRDFAAYRSKKVAKKPTNKAPHPKQEPQEINFPDDLPGSNTAAPVQETLHGCQPVTQEDGKESRISVQERQ | binds |  |  |  |

— patent US20230055694A1 (INSTIL BIO UK, published 2023)
